Patent US20170260266A1 (GlaxoSmithKline, published 2017)
Where “and” joins values, the source holds several entries; their conditions need not be identical. Equal entries are not always repeated.

T1: human IL-7 (human, UniProt P13232 26-177)
T1 construct: Immobilised on a CM4 chip by primary amine coupling; also called Mature processed human IL-7
T1 sequence: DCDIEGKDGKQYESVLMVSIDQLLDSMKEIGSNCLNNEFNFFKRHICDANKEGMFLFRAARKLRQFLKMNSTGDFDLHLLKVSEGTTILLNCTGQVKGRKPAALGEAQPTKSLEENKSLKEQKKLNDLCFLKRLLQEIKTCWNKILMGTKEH


Key:
[1] = target: T1, human IL-7; test: SPR (Biacore)
[2] = target: T2, full length (mature) human TSLP, recombinant (human, UniProt Q969D9 29-159, biotinylated in the SPR assay on the SA chip); test: cell-based or functional assay
[3] = target: T3, native human TSLP (supernatant from stimulated human lung fibroblasts) (human, UniProt Q969D9 29-159); test: cell-based or functional assay
[4] = target: T2, full length (mature) human TSLP, …; test: cell-based or functional assay; remark: listed apart in the source
[5] = target: glycosylated recombinant human TSLP expressed from HEK cells (human, UniProt Q969D9 29-159, glycosylated); test: cell-based or functional assay
[6] = target: T2, full length (mature) human TSLP, …; test: RBA, geometric mean (n = 2)
[7] = target: T2, full length (mature) human TSLP, …; test: SPR with biotinylated TSLP; mean of two experiments
[8] = target: T4, short form TSLP (synthetic biotinylated 63 amino acid peptide comprising residues 69-131 of mature full … (human, biotinylated (position not given))); test: ForteBio Octet, biotinylated sfTSLP on streptavidin tips
T4 construct: also called sfTSLP; sf TSLP
T4 sequence (peptide, as listed by the source): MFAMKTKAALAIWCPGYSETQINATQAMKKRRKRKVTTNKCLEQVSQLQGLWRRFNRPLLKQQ

[9] = target: T2, full length (mature) human TSLP, …; test: TSLP receptor binding assay (RBA, ELISA, OD 450 nm): dAb titrated against recombinant human TSLP (1 ng/ml); blocked is the binding of TSLP to the plate-coated TSLP receptor complex
[10] = target: T3, native human TSLP (supernatant from …); test: TSLP receptor binding assay (RBA, ELISA, OD 450 nm): dAb titrated against native human TSLP (supernatant of stimulated human lung fibroblasts); blocked is the binding of TSLP to the plate-coated TSLP receptor complex
[11] = target: T2, full length (mature) human TSLP, …; test: cell-based or functional assay; remark: listed apart in the source
[12] = target: T2, full length (mature) human TSLP, …; test: ELISA RBA, geometric mean
[13] = target: T2, full length (mature) human TSLP, …; test: SPR, biotinylated TSLP on SA chip (Biacore 4000)
[14] = target: T2, full length (mature) human TSLP, …; test: SPR, biotinylated TSLP on SA chip; all concentrations (footnote 1)
[15] = target: T2, full length (mature) human TSLP, …; test: SPR, biotinylated TSLP on SA chip; value excluding 1000 nM concentration

Binder | pSTAT5 assay in SW756 cells, Geometric Mean IC50 [11] | IC50 [12] | Kd [13] | also measured
DOM30h-440-81/86 (other, Vk single variable domain (dAb); DOM30h-440-55 with the C-terminal R removed (-R); also called DOM30h-440-86; TSLP dAb) VL: DIQMTQSPSSLSASVGDRVTITCRASRPIRNWLDWYQQKPGKAPKLLIWGASHLQSGVPSRFSGSGSGTDFTLTISSLQPEDFATYYCVQIGEDPVTFGQGTKVEIK |  |  |  | binding result [1]: no binding; IL-5 production from human PBMC stimulated with a mixture of TSLP, IL-33 and IL-25, Geometric Mean IC50 [2]: 129 nM; native TSLP-induced STAT5 phosphorylation in SW756 cells, Geometric Mean IC50 [3]: 0.86 nM; Inhibition of TSLP-induced TARC in whole blood, Geometric Mean IC50 (n = 7) [4]: 2.4 nM; Inhibition of TSLP-induced pSTAT5 in SW756 cells, Geometric Mean IC50 (n = 5) [4]: 1.92 nM; Inhibition of TSLP-induced TARC in whole blood, Geometric Mean IC50 (n = 6) [5]: 3.1 nM; Inhibition of TSLP-induced pSTAT5 in SW756 cells, Geometric Mean IC50 (n = 3) [5]: 0.55 nM; IC50 [6]: 1.94 nM; Kd [7]: 0.867 nM and 0.87 nM; koff [7]: 0.000508 s⁻¹; kon [7]: 619000 M⁻¹ s⁻¹; binding result [8]: no binding; IC50 (read off the curve) [9]: ~4 nM; IC50 (read off the curve) [10]: ~100 pM
DOM30h-440-65 (other) VL: DIQMTQSPSSLSASVGDRVTITCRASRPIRNWLDWYQQKPGKAPKLLIWGASHLQSGVPSRFSGSGSGTDFTLTISSLQPEDFATYYCMQIGEDPVTFGQGTKVEIKR | 0.78 nM | 0.69 nM | 3.84 nM | 
DOM30h-440-53 (other) VL: DIQMTQSPSSLSASVGDRVTITCRASRPIRNWLDWYQQKPGKAPKLLIWGASHLQSGVPSRFSGSGSGTDFTLTISSLQPEDFATYYCLQVGEDPVTFGQGTKVEIKR | 1.92 nM | 2 nM | 3.05 nM | 
DOM30h-440-56 (other) VL: DIQMTQSPSSLSASVGDRVTITCRASRPIRNWLDWYQQKPGKAPKLLIWGASHLQSGVPSRFSGSGSGTDFTLTVSSLQPEDFATYYCMQIGEDPVTFGQGTKVEIKR | 0.99 nM | 0.56 nM | 2.47 nM | 
DOM30h-440-64 (other) VL: DIQMTQSPSSLSASVGDRVTITCRASRPIRNWLDWYQQKPGKAPKLLIWGASHLQSGVPSRFSGSGSGTDFTLTISSLQPEDFATYYCLQIGEDPVTFGQGTKVEIKR | 3.26 nM | 0.95 nM | 6.17 nM | 
DOM30h-440-57 (other) VL: DIQMTQSPSSLSASVGDRVTITCRASRPIRNWLDWYQQKPGKAPELLIWGASHLQSGVPSRFSGSGSGTDFTLTISSLQPEDFATYYCMQIGDDPVTFGQGTKVEIKR | 0.56 nM | 0.34 nM |  | Kd [14]: 3.48 nM; Kd [15]: 1.5 nM
DOM30h-440-60 (other) VL: DIQMTQSPSSLSASVGDRVTITCRASRPIRNWLDWYQQKPGKAPKLLIWGASHLQSGVPSRFSGSGSGTDFTLTISSLQPEDFATYYCIQFGEDPVTFGQGTKVEIKR | 0.7 nM | 0.32 nM | 0.14 nM | 
DOM30h-440-55 (other) VL: DIQMTQSPSSLSASVGDRVTITCRASRPIRNWLDWYQQKPGKAPKLLIWGASHLQSGVPSRFSGSGSGTDFTLTISSLQPEDFATYYCVQIGEDPVTFGQGTKVEIKR | 1.1 nM | 0.87 nM | 2.78 nM | 
DOM30h-440-54 (other) VL: DIQMTQSPSSLSASVGDRVTITCRASRPIRNWLDWYQQKPGKAPKLLIWGASHLQSGVPSRFSGSGSGTDFTLTISSLQPEDFATYYCWQLAFDPTTFGQGTKVEIKR | 1.52 nM | 2.15 nM | 3.82 nM | 
DOM30h-440-58 (other) VL: DIQMTQSPSSLSASVGDRVTITCRASRPIRNWLDWYQQKPGKAPKLLIWGASHLQSGVPSRFSGSGSGTDFTLTISSLQPEDFATYYCLQIADDPVTFGQGTKVEIKR | 1.91 nM | 1.41 nM | 2.65 nM | 
DOM30h-440-63 (other) VL: DIQMTQSPSSLSASVGDRVTITCRASRPIRNWLDWYQQKPGKAPKLLIWGASHLQSGVPSRFSGSGSGTDFTLTISSLQPEDFATYYCMQIGSDPVTFGQGTKVEIKR | 2.21 nM | 1.55 nM | 4.22 nM | 
